Measurements as given in the DeepSol protein solubility set.

Test: soluble on expression in E. coli; label from the status in PepcDB or PDB records

Sequence	soluble on expression in E. coli
MGSDKIHHHHHHMQPSATDSTISAGTQPHIVYSERASAPGPLLVFIPGTGGKTPKTAETEQAFIGTALAHGYRVIILSYIDTPAIAQVCTKRVLANDPACAEQVRQKRAFGDDTTARIDDAPQDAIVHRLNALIRYLAAHNAGDHWEQYLAGERLNWRAIVLSGQSQGGGMAAYIAKRIAIRGVIDFSGGWDMRSDSDIASWYSAPSATPPERWYGTYHADERFASAIAASYRAMNIPVSHQFSLSEPVRHPEGKNPGHGEGASNPVYRGIWETMLTGLE	not soluble
MGSDKIHHHHHHMQQAQLPLEAILYQYDLYPEAVEDHGENVKKLVTKHGLFALKKTQMTRSQADWFVYCMRKLDRLGYRKVVPLVPTKFGEYTLTDRDTSFYVMPWIESIPYNARESQEEKLADQLGVIHRLTVKTQPFSKEQLEASYNELRDRWDSRWLTMNRFADQAERKTYMSPYELTLLTHFSFLEHMAHTAKESLEAWYETCLEKEKYRSVLCHGRLSRAHAFFNERHEPLLFNFERAALDTPARDLASFFRHSFPHALWSEEEGHRWLYRYEQHLPLLEEEKRLLHAYLSFPDPVIYGIEAYQQQSGPPSEVKHVKRLEKRLLNLRRVERFSKSLLPTPAINESGLS	not soluble
MGSDKIHHHHHHMQQLQAAVALHKQGELDKAEAIYQQVLAVDVNNFYALNFCGSIKREKKRFDEGIDFLSRAISLQPDNPDAIYNLGNVFKDSERWDEAISCYEKTLGLRAESPEALNNLGICLKEVERFEYSEIVLRRVVSMQPGLAGAWLNLGNTFKEQEKYSEAKASYRNAIDLKPDFEAAYFALGLVLKEEGKVEEAIASYRKAIELKPDFADVYFALGLVLKEAGEFEAARQIVSALSTVNAMEDSTLLSFSLCDLVFDWYHRRVLNLLEDVEMTALSGASAPFSAYETVRKIQPQLFPPLFLKGEGDRANEKHLYRNGYLVEDEILPEDLCAEFVNGFEGANAMSAALIRAVSEKGVLGSVLGKIFKHTDFPHLVWNCIYFAKGPDDQAISDAWHYDNHYNVWTPKLMIYLNSQREEGGATEFVDTSLSRRLSEETDYMGFIWQRESYADRVKGSVKDLGLDPATLDPDHYTFSPDHAGSGVWFCPSRVLHRGVSPKKGVRHVLSFSLTPLPHDCGWSIDQCVDKSIEILQDKINKGMQKSDVNPYWIPAEAGYA	not soluble
MGSDKIHHHHHHMQQNDKKLFVLDTNVLLHEPLAIYSFKEHDVIIPMTVLEELDSIKDRKRDVSRDARVAIRALEDILGGPTTPEQILKGVALPTREEHSQVSGHLSIFPDHQVEFIIGSLPGDNNDNRIINTALHLQKIHFPRTVVLVTKDINMRLKAKGAGIERVEDYRSDQLIDDVRFLAKGFYQFSGDFWQNVDKVSTERRGLHTVHQVPLEHLGNENFYLNQYLIDDSSDFCGRVVSKTDKHLEMIDRGRDRLLHHEAWGINPKNIYQGMALDALLDPDIELIILTGPAGCGKTLLAMAAALELVVERKLYDKIIVTRNTPEIAESIGFLPGSEEEKMTPWLAAITDTLEVLHKNDVNPAGSVNYIMEKANIQFKSINFMRGRSIQNSVVILDECQNLTASQIKTMITRMGEGTKLICSGNLAQIDSTYLTAVTSGLTYMVERFKDFEGSANIYLNGVVRSRLAEFAEEHL	not soluble
MGSDKIHHHHHHMQRDDDSFMLVPSKGEDYMAGWHLDTKMAQDIVARTMRIIDTNINVMDARGRIIGSGDRERIGELHEGALLVLSQGRVVDIDDAVARHLHGVRQGINLPLRLEGEIVGVIGLTGEPESLRKYGELVCMTAEMMLEQSRLMHLLAQDSRLREELVMNLIQAEEHTPALNEWAQRLGIDLNQPRVVAMIEVDSGQLGVDSAMAELQQLQNALTTPDRNNLVAIVSLTEMVVLKPALNSFGRWDADDHVRRVEQLIARMKENGQLRFRVALGNFFTGPGSIARSYRTARTTMMVGKQRMPESRSYFYQDLMLPVLLDSLRGGWQANELARPLARLKAMDNNGLLRRTLQAWFRHNVQPLATSKALFIHRNTLEYRLNRISELTGLDLGSFDDRLLLYIALQLDEQR	not soluble
MGSDKIHHHHHHMQRIAMISEHASPLASVGSVDSGGQNVYVAHLARQLGKSGYLVDVFTRRDKALLPDVVAFAPNVRVVHVPAGPAVFVPKEQLLSFMPAFGDSMVDFMRRDAIGYDVLHANFFMSGVAAMRAREVLDIPLVMTFHALGKVRRLHQGSADGFPDNRFEIEDELVRHADRVVAECPQDLDDLATLYGGDPERIDIVPCGFDEEEFAPLDRAEARRALDWDADVFTVLQLGRLVPRKGIDNVIRAIGHLRRDFRIPARLYVVGGNAEQPSVEATPEIGRLQGVADEAGVSDCVTFVGRRRRSQLCHFYSASDVFVTTPWYEPFGITPVEAMACGVPVVGADVGGIRSTVVDGETGYLVPPHAPEALADRLARLAGDRALARRMGAAGLQRAHANYTWMSVARTMEQVYARVMRAERPARRVAA	not soluble
MGSDKIHHHHHHMRAIAIVLARSSSKRIKNKNIIDFFNKPMLAYPIEVALNSKLFEKVFISSDSMEYVNLAKNYGASFLNLRPKILADDRATTLEVMAYHMEELELKDEDIACCLYGASALLQEKHLKNAFETLNKNQNTDYVFTCSPFSASPYRSFSLENGVQMAFKEHSNTRTQDLKTLYHDAGLLYMGKAQAFKEMRPIFSQNSIALELSPLEVQDIAHFRRFRISQAQIQPFEKRMPVKILCDCFLTSGLGHVRRCEKILSFIEKLGVEASLYLHKQNNISAFLEGVGGNDFLITDSYCLNSKDFYLLKEKAKSLMVIEDTEHAKGFYPKNTKILNFTLNALKHYHHLSKDYQYYLGVGFYPVDARFIYDRPINTENKEVLITLGGSEQKTLKEIVKILENKNVNLHIISPYTPKNPPKNTHYYSPLNPLEFSSLMKSCACAISAAGQTLYELALSQTPSLILPIASNQIIQSKEFESLGIFKQTSLKTLAKDFENLQIQKNQAWAKNLVFGDKLEGALREFLEI	not soluble
MGSDKIHHHHHHMRAIFFNGDLQYTTDYPDPVRQPGEALIRPHLVGICNTDLEITRGYMNFRGVLGHEFVGTVVASDDPSWQGKRVVGEINAACRRCPTCLRGDVSHCPQRTTLGIYRRDGAMADLFTLPEACLHEVPASVSDEAAVFTEPLAAALEIVEQSHIRPTERVAVVGDGKLGAMIVQVLRLTGCELTLIGRHPERWDVYRQQGITCVRSTDLPGTLFDVVVDCTGNPSGLNIARQIIRPRGRLILKSTFAAETQLNLSMVVVDEIQLIGSRCGPFAPALRLLERGLIATTPLISARYPLAEGLQAFAAAPGQLKVLLSV	not soluble
MGSDKIHHHHHHMREKIDALTQNLNRTIVGKTEAIRLVLVALLGGGHALLEDVPGVGKTLLAKSLARSLDGTFQRLQCTPDLLPTDITGTNIWNPKSGEFSFMPGPVFANVVLADEINRATPRTQSALLEVMEEQQVTVDGVSRTVPHPFFVIATQNPVEYQGTFPLPEAQMDRFMLSLSLGYPGVDEELEMLQNLQHGIKVGDLQPCLTLAEVAELREICSQVKVETVLQQYILELVRSTRQDEEITLGVSPRGTVALHKATQALAFLLGRDYAIPDDVKFLAPHVLCHRLIARGGRSARSIVDRLLRSLPIP	not soluble
MGSDKIHHHHHHMRGMMLGMLAETHIHSGAGRSEGFVDLPVAREAVTSYPVIAGSSLKGALRDAARERGMDESIFGDQDRAGDVLVSDARLLLLPVRSLTGSYRWVTCPHILERLSRDMRLCGISDGFEGASVERGKACCTDDLNQIFLEEREFQRSNGIDGALIDALKKMVPHKQTASRLERQLVIISDDDFGWFASYGLPVIARNKLDDNKKSKNLWYEEALAPDTLMYAMVFERKDGALGKVQSMFETKPYLQLGGNETVGMGWFAVKILEQGEGR	not soluble
MGSDKIHHHHHHMRGSAVARDLTDDKAMVHGALSMLARGGAVDQAYAPDAVAEIAHPYGTCTGADITRFYGDLHRALPDANWRPEIFFAGHNHPDERMEGPRVAAQVGSFGHWQGTFTQPLLGIEPTGGVVHLRMCEVHHLNAAGQIAQSWILPDFLDLMDQAGQFPLPPMNGARGLWPGPRGGNGVRMGPPDVAGGNASMAQVLDMHNALNTHVGADVSGLTMAHWDPNFMYYAAAGIGICRGVEGFRRNHQIPFREAVPDRYSKGHFVRIADGRFALTGGRLYATHTGTYLGIPATGRQVHIDVMDFYHFHDQGLICQNWLPFDILKTAHQMGVDLLPALPS	not soluble
MGSDKIHHHHHHMRIAILSQGPELYSTKRLVEAATLRGHEVKVINPLECYMNINMRQSSIHIGGEELPPFDAVIPRIGASITFYGSAVLRQFEMMGVYALNDSVGISRSRDKLRSMQLMSRRGIGLPITGFANKPSDIPDLIDMVGGAPLVIKLLEGTQGIGVVLAETRKAAESVIEAFMGLKANIMVQEYIKEANGADIRCFVLGDKVVAAMKRQAMPGEFRSNLHRGGTASLVKLTPEERSVAIRAAKTMGLNVAGVDLLRSNHGPLVMEVNSSPGLEGIEGATAKDVAGAIIEFVEKNALKTKKPTQA	not soluble
MGSDKIHHHHHHMRIHVLCDDSSQNGFESEHGFSVLVDSVLFDTGKSDVFLKNARKLGIDLPKDVLISHGHYDHAGGLLYLSGKRVWLRKEALDQKYSGERYAGADWNEVLYYNTGKFVIERITEIGKNMFLLGPANLRGKVPTGDFFVERNGERRKDLFEDEQTLVVRTKEGLVVITGCSHRGIDNILLDIAETFNERIKMVVGGFHLLKSSDDEIEKIVKAFNELGVETVVPCHCTGERAVDIFKREFLGKIMDCYAGLKLEVSD	soluble
MGSDKIHHHHHHMRIILYLGKGGVGKTTVSASTATAIARSGKRVLIMSTDVAHSLADAFGVELSSTPVEVEKNLFAMEVNILAEIRENWTELYSYFSSILMHDGTNEIVAEELAIVPGMEEMISLRYIWKAAKSGKYDAVVVDAAPTGETMRLLGMPESYGWYSEKIGGWHSKAIGFAAPLLSRFMPKKNIFKLMPEVNEHMKELHGMLQDKSITTFRVVLNPENMVIKEALRVQTYLNLFGYKLDAAVVNKVLPSNSSDPYLQALIDQQAKYLRVIDNCFYPVPIFRAMQSSKEVISTDRLYDLSQELFSGRNPMEVLYSNDKTQTLEKINGKYVLSLYLPNVEVDKLAVNIKGDELLVDINNFRKSIVLPNVLVGRKTEGADFEQGTLNITFAN	not soluble
MGSDKIHHHHHHMRIKAVSSLVGGEVLAEPILTEKNDILIPNGTRIKPDYVPLIESLGIESVMVEDPYENYESPNSIVDPAIFDKYVKKVRRLMESHIYHDGKSLKEFEIIANDIVHDINDMPYDVIVDIKERNSDLYEHTVMVTLLSVLVARKLKLDEKRKYNIAVGCLLHDIGLRFIVTRYKNRDFSNANPAELFEYKKHTILGYSALDEENWIAPISMKMVLSHHENMAGTGFPMKQKNKELECRIIQACDAFDSLISGMECKRICVQEAINQIKENDGGRFDNKIIKCLLSSIARYPVGTTVKTNAEEEGVVVSQTVDPENPIIMIFGNENNGKLMLHNRLNLMLDKNISILQVI	not soluble
MGSDKIHHHHHHMRIVHISDLHFGEELIREKVEKAVRQINEIEPDLLVITGDLSCWGIHSEMRDAYETLLDLKPDYIAVPGNHDARNIGYEFFQLYFGETKKYWKNDVVSLIAADSTQPDLDDGYIGKEQRDWIVSKIRKDRFNILALHHHIAPIPKTGRERNVLIDAGEMVELLIANGISAVLAGHRHMPYSLRLMRTHVIHAGTLGSFKVLGMPDHNYNVIEIKDNTLTLKLRFVDYGEVEIGRYTINPETPESISVYQRIAKPKKVLFLSRSNDCRTKIAEAIFNHISPNNMLAVSAGIEPAQDLDLRAVATMRELGLKINGKPRKFSEDMVSDFDAIVEFDELGVGEFWDVKKPSSAEEYREVRSEIWRRVEELVKRLLA	not soluble
